Assay results reported in patent publication US10450368.

Columns and labels:
[1] = target: CH505.TF mutant gp120 M6 (HIV-1); assay: direct-binding ELISA (OD450), panel 'CH505.TF gp120 M6'
[2] = target: CH505.TF mutant gp120 M8 (HIV-1); assay: direct-binding ELISA (OD450), panel 'CH505.TF gp120 M8'
[3] = target: HIV-1 CH505 transmitted/founder gp120 Env (HIV-1); assay: direct-binding ELISA (OD450), panel 'CH505.TF gp120'
Con S gp120 = assay: direct-binding ELISA (OD450), panel 'Con S gp120'
Centromere B [4] = target: Centromere B (UniProt P07199); assay: AtheNA, Ab 25 ug/ml
Centromere B [5] = target: Centromere B (UniProt P07199); assay: AtheNA, Ab 6.25 ug/ml
Centromere B [6] = target: Centromere B (UniProt P07199); assay: AtheNA, Ab 12.5 ug/ml
AtheNA, Ab 50 ug/ml = substrate: SSB (UniProt P05455); assay: AtheNA, Ab 50 ug/ml
Jo-1 [7] = target: Jo-1 (UniProt P12081); assay: AtheNA, Ab 50 ug/ml
Centromere B [8] = target: Centromere B (UniProt P07199); assay: AtheNA, Ab 50 ug/ml
AtheNA, Ab 6.25 ug/ml = substrate: SSB (UniProt P05455); assay: AtheNA, Ab 6.25 ug/ml
AtheNA, Ab 12.5 ug/ml = substrate: SSB (UniProt P05455); assay: AtheNA, Ab 12.5 ug/ml
AtheNA, Ab 25 ug/ml = substrate: SSB (UniProt P05455); assay: AtheNA, Ab 25 ug/ml
Jo-1 [9] = target: Jo-1 (UniProt P12081); assay: AtheNA, Ab 25 ug/ml
Jo-1 [10] = target: Jo-1 (UniProt P12081); assay: AtheNA, Ab 6.25 ug/ml
Jo-1 [11] = target: Jo-1 (UniProt P12081); assay: AtheNA, Ab 12.5 ug/ml
[12] = target: BG505 SOSIP.664 gp140 trimer (HIV-1); assay: negative stain EM, 10 molar excess of Fab
[13] = target: B41 SOSIP.664 gp140 trimer (HIV-1); assay: negative stain EM, 10 molar excess of Fab

Centromere B, sequence (P07199 whole entry): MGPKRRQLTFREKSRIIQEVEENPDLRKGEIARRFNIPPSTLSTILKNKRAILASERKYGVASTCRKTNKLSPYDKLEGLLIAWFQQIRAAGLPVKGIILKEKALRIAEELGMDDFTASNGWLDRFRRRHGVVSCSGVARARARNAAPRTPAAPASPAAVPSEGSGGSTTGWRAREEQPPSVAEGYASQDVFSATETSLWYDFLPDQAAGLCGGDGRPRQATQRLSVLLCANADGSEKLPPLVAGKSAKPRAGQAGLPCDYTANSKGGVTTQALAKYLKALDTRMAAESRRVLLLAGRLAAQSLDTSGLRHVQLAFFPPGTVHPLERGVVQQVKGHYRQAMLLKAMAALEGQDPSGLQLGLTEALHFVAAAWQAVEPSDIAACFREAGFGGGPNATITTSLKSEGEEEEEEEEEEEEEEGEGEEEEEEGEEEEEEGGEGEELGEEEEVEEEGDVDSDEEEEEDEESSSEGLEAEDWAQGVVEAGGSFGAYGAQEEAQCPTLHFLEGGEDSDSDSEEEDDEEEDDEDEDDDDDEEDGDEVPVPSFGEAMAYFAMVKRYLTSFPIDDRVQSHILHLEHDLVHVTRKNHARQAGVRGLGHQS
Jo-1, sequence (P12081 whole entry): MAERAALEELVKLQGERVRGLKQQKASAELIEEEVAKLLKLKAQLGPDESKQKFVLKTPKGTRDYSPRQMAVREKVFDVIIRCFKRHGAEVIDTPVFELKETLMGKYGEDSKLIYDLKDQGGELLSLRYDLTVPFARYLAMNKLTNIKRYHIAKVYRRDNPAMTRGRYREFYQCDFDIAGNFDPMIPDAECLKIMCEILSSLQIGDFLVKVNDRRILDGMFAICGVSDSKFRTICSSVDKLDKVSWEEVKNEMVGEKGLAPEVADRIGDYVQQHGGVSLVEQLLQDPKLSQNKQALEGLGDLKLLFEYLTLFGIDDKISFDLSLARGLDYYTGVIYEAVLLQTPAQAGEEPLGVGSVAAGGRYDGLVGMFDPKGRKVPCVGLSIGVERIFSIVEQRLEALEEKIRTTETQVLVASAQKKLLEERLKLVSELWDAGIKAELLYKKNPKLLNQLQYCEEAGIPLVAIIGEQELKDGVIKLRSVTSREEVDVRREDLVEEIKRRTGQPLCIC
SSB, sequence (P05455 whole entry): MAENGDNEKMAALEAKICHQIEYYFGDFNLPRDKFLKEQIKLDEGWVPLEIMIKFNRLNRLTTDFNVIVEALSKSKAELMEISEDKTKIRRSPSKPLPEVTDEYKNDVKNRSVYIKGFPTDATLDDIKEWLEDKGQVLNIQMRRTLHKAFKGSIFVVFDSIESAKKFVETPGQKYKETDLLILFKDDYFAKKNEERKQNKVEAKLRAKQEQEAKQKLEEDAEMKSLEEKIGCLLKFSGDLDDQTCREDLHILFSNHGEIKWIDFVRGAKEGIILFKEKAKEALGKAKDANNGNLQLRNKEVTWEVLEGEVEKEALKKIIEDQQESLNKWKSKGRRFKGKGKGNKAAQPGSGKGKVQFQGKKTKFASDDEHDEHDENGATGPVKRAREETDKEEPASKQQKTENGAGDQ

B1: CH492 (antibody, V domains shown)
VH: QVQLVQSGAAVKKPGASVRVSCKASGYTFTSSHIHWVRQAPGQGPEWMGMVDPRFGRPTYAQKFQGRVAMTRDIYTSTVYMDLRSLKSEDTAIYFCVRNAETEGSLLHIEYWGQGTRVTVSS
VL: EIVLTQSPATLSVSPGERATLSCRASQSVRSNIAWYQQKPGQAPRLLIHGASTRATGIPGRFSGSGSGPEFTLAISSVQSEDFAVYYCQQYNDWWTFGQGTKVEIK
EC50 (read off the curve) [1]: 0.5 µg/mL
EC50 (read off the curve) [2]: 6 µg/mL
EC50 (read off the curve) [3]: 0.5 µg/mL
EC50 (read off the curve) (Con S gp120): 5 µg/mL

B2: CH235 (antibody, V domains shown)
VH: QVQLVQSGAEVKKPGASVTVSCQASGYTFTNYYVHWVRQAPGQGLQLMGWIDPSWGRTNYAQNFQGRITMTRDTSTSTVYMEMRSLRSEDTAVYYCARNVATEGSLLHYDYWGQGTLVTVSA
VL: EIVLTQSPATLSVSPGERATLSCRASQSVRSNLAWYQQRPGQAPRLLIYGTSTRATGVPARFSGRGSGTEFTLAISSMQSEDFAVYLCLQYNNWWTFGQGTKVEIK
AtheNA signal (relative luminescence units) (Centromere B [4]): 6
AtheNA signal (relative luminescence units) (Centromere B [5]): 3
AtheNA signal (relative luminescence units) (Centromere B [6]): 5

B3: CH236 (antibody, V domains shown)
VH: QVQLVQSGAAVKRPGASVTISCRASGYTFTTYYIHWVRQAPGQRLELMGMIDPSRGRTDYAQKFQGRVTMSRDTSTSTLYMELRSLRPDDTALYYCVRNVGTEGSLLHYDYWGQGTLVTVSS
VL: EIVLTQSPATLSVSPGERVTLSCRASQSVRNNLAWYRQKRGQAPRLLIYGASTRATGIPARFSGSGSGTEFTLTISSMQSEDFAVYYCQQYNNWWTFGQGTKVEIK
AtheNA signal (relative luminescence units) (AtheNA, Ab 50 ug/ml): 207
AtheNA signal (relative luminescence units) (Jo-1 [7]): 145
AtheNA signal (relative luminescence units) (Centromere B [8]): 84
AtheNA signal (relative luminescence units) (AtheNA, Ab 6.25 ug/ml): 15
AtheNA signal (relative luminescence units) (AtheNA, Ab 12.5 ug/ml): 63
AtheNA signal (relative luminescence units) (AtheNA, Ab 25 ug/ml): 175
AtheNA signal (relative luminescence units) (Jo-1 [9]): 72
AtheNA signal (relative luminescence units) (Centromere B [4]): 129
AtheNA signal (relative luminescence units) (Jo-1 [10]): 7
AtheNA signal (relative luminescence units) (Centromere B [5]): 208
AtheNA signal (relative luminescence units) (Jo-1 [11]): 19
AtheNA signal (relative luminescence units) (Centromere B [6]): 233

B4: CH491 (antibody, V domains shown)
VH: QVQLVQSGAAVKRPGASVTISCRASGYTFTTYYIHWVRQAPGQGLELMGWINPRGGRTDYSYRFEDRVSMYRDTSMSIVYMDLRNLKSADTAVYYCVRNVGTSGSLLHYDFWGQGSLVTVSS
VL: EIVLTQSPATLSVSPGERVTLSCRASQSVRNNLAWYRQKRGQAPRLLIYGASTRATGIPARFSGSGSGTEFTLTISSMQSEDFAVYYCQQYNNWWTFGQGTKVEIK
AtheNA signal (AtheNA, Ab 50 ug/ml): 144
AtheNA signal (Jo-1 [7]): 169
AtheNA signal (AtheNA, Ab 6.25 ug/ml): 42
AtheNA signal (AtheNA, Ab 12.5 ug/ml): 60
AtheNA signal (AtheNA, Ab 25 ug/ml): 95
AtheNA signal (Jo-1 [9]): 118
AtheNA signal (Jo-1 [10]): 56
AtheNA signal (Jo-1 [11]): 79

B5: CH241 (antibody, V domains shown)
VH: QVQLVQSGAAVKKPGASVRVSCKASGYTFTSSHIHWVRQAPGQGPEWMGMIDPSVGRPTTAGKFQGRVTMTRDRYTSTAYMDLSSLRSEDTAVYYCARSVETTGSLLYFDYWGQGTLITVSS
VL: EIVLTQSPATLSVSPGERATLSCRASQSVRSNIAWYQQKPGQAPRLLIHGASTRATGIPGRFSGSGSGPEFTLAISSVQSEDFAVYYCQQYNDWWTFGQGTKVEIK
AtheNA signal (relative luminescence units) (Centromere B [4]): 14
AtheNA signal (relative luminescence units) (Centromere B [5]): 6
AtheNA signal (relative luminescence units) (Centromere B [6]): 8

B6: CH235 Fab (Fab, V domains shown)
VH: QVQLVQSGAEVKKPGASVTVSCQASGYTFTNYYVHWVRQAPGQGLQLMGWIDPSWGRTNYAQNFQGRITMTRDTSTSTVYMEMRSLRSEDTAVYYCARNVATEGSLLHYDYWGQGTLVTVSA
VL: EIVLTQSPATLSVSPGERATLSCRASQSVRSNLAWYQQRPGQAPRLLIYGTSTRATGVPARFSGRGSGTEFTLAISSMQSEDFAVYLCLQYNNWWTFGQGTKVEIK
stoichiometry (Fabs per trimer) (Fabs per trimer) [12]: 1
stoichiometry (Fabs per trimer) (Fabs per trimer) [13]: 2

B7: CH235.9 Fab (Fab, V domains shown)
VH: QVRLLQYGGGVKRPGASMTISCVASGYNFNDYYIHWVRQAPGQGLELMGWIDPSGGRTDYAGAFGDRVSMYRDKSMNTLYMDLRSLRSGDTAMYYCVRNVGTAGSLLHYDHWGLGVMVTVSS
VL: EIVLTQSPATLSVSPGERVTLSCRASQSVRNNLAWYRQKRGQAPRLLIYGASTRATGIPARFSGSGSGTEFTLTISSMQSEDFAVYYCQQYNNWWTFGQGTKVEIK
stoichiometry (Fabs per trimer) (Fabs per trimer) [12]: 3
stoichiometry (Fabs per trimer) (Fabs per trimer) [13]: 3

B8: CH235.12 Fab (Fab, V domains shown)
VH: QVRLAQYGGGVKRLGATMTLSCVASGYTFNDYYIHWVRQAPGQGFELLGYIDPANGRPDYAGALRERLSFYRDKSMETLYMDLRSLRYDDTAMYYCVRNVGTAGSLLHYDHWGSGSPVIVSS
VL: EIVLTQSPATLSASPGERVTLTCRASRSVRNNVAWYQHKGGQSPRLLIYDASTRAAGVPARFSGSASGTEFTLAISNLESEDFTVYFCLQYNNWWTFGQGTRVDIK
stoichiometry (Fabs per trimer) (Fabs per trimer) [12]: 3
stoichiometry (Fabs per trimer) (Fabs per trimer) [13]: 3

B9: CH493 (antibody, V domains shown)
VH: QVRLLQYGGGVKRPGASMTISCVASGYNFNDYYIHWVRQAPGQGLELMGWIDPSGGRTDYAGAFGDRVSMYRDKSMNTLYMDLRSLRSGDTAMYYCVRNVGTAGSLLHYDHWGLGVMVTVSS
VL: EIVLTQSPATLSVSPGERVTLSCRASQSVRNNLAWYRQKRGQAPRLLIYGASTRATGIPARFSGSGSGTEFTLTISSMQSEDFAVYYCQQYNNWWTFGQGTKVEIK
AtheNA signal (Jo-1 [7]): 198
AtheNA signal (Centromere B [8]): 94
AtheNA signal (Jo-1 [9]): 167
AtheNA signal (Centromere B [4]): 129
AtheNA signal (Jo-1 [10]): 54
AtheNA signal (Centromere B [5]): 177
AtheNA signal (Jo-1 [11]): 102
AtheNA signal (Centromere B [6]): 165
